Data: article PMC8836349, “Characterization of adenine phosphoribosyltransferase (APRT) activity in Trypanosoma brucei brucei: Only one of the two isoforms is kinetically active” (PLoS Neglected Tropical Diseases, 2022)

B5: Trypanosoma brucei brucei adenine phosphoribosyltransferase 1 (APRT1, Tb927.7.1780) (enzyme, UniProt Q57V32 1-235, looked up)
chain: MSLVEVLPNYFTLSKDSPLRKKFEKVYKWYSPAFSPHDVPRFAEVGNITENPEVMRGIRDFFVDRYKNLQQPITHILGFDSRGFLLGPMIAVELNVPFVLIRKANKIAGVIIKSEPYTKEYAAESEECMTVRFGSFDKNSRVVLIDDVIATGGTMLAGVQLVDACGATLVEVAGILGLTFLKGTQPAHTFAGGRYSNVPFVTLVDETVLSDENCGDPLHHKGSRIISCAEAKKLI
notes: APRT1 of Trypanosoma brucei brucei, Tb927.7.1780, UniProt Q57V32; the ORF, codon optimised for P. pastoris, cloned into a pPICZ vector; tags were removed with TEV protease (tag-less APRT1); also called TbbAPRT1; source: Pichia pastoris strain smPP, purified (Ni-NTA, TEV cleavage, second Ni-NTA)

Columns and labels:
APRT1 (TbbAPRT1) = target: T1, APRT1 (TbbAPRT1) (Trypanosoma brucei, UniProt Q57V32); assay: coupled myokinase/pyruvate kinase/lactate dehydrogenase assay, NADH at […] nm; assay type: biochemical; details: read-out: Apparent inhibition parameters^b
T1 construct: gene Tb07.43M14.180; full-length ORF, codon optimized, expressed in Pichia pastoris; His6/mCherry tag removed with TEV protease; homodimer
T1 sequence (Q57V32 1-235): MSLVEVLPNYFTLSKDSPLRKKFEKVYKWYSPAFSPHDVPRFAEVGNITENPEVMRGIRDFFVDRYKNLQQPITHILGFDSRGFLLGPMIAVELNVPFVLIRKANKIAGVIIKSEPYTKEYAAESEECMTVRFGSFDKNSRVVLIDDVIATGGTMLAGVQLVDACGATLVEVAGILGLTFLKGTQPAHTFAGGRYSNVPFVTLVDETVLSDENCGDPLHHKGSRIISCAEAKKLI

purified protein [1] = substrate: Nc1ncnc2nc[nH]c12; assay: purified protein; assay type: biochemical, Trypanosoma brucei; details: 100 mM HEPES pH 7.8, 25 mM MgCl2, room temperature
[2] = target: the molecule itself; assay: SEC; Superdex 200 Increase 10/300 GL; 200 uL of APRT1 at 13.8 mg mL^-1 or APRT2 at 10.8 mg mL^-1; 50 mM HEPES pH 7.8, 300 mM NaCl, 50 mM L-arginine, 50 mM L-glutamate; column calibrated with standards of 1,350 to 670,000 Da
[3] = target: B5; assay: cell-based or functional assay
[4] = target: the molecule itself; assay: cross-linking; dimethyl suberimidate (DMS) 8.7 mM, 0.2 M triethanolamine pH 8.5, purified APRT at 17.8, 35, 69 or 140 ug mL^-1, RT, 5-8 hours; 12% SDS-PAGE, Coomassie Blue
purified protein [5] = substrate: O=P(O)(O)OC[C@H]1O[C@H](OP(=O)(O)OP(=O)(O)O)[C@H](O)[C@@H]1O; assay: purified protein; assay type: biochemical, Trypanosoma brucei; details: varied PRPP (10-250 μM) at fixed adenine 1-20 μM, 100 mM HEPES pH 7.8, 25 mM MgCl2, room temperature
[6] = kinetic dissociation constant from free enzyme, varied adenine (1.5-50 μM) at fixed PRPP 25-150 μM

`Nc1ncnc2cc[nH]c12` [9-deazaadenine] showed a Ki (APRT1 (TbbAPRT1)) of 156 ± 21 µM.

B1: APRT2 (Trypanosoma brucei brucei TREU927) (protein)
chain: MSQYDAILTERHPHHFTLADTHPLAKELHANIFGESDLTHANCAHVYDISSLTEKPALFRKVIEFLKCRYETMGDTGPTHIIGVESRGYIIGAPLAVALGIPFVTARVTKRFPSSFVPEGDDLKYLPMSRSIRNDSIPPRARVLIVDDFIGTGSTMLAALRLADIVAAQVVEVLTVCDVASLGGIKIIRESDDEMFKETPIFTLIHFKLSPREAEEQLEFVNSYITRSRL
notes: full-length ORF, codon optimized, expressed in Pichia pastoris; N- or C-terminal His6/mCherry tag removed with TEV protease; weak dimer
For B1, the Km (purified protein [1]; adenine 50-500 μM, 1 mM PRPP) was 253 ± 4 µM, the kcat (purified protein [1]; adenine 50-500 μM, 1 mM PRPP) was 0.003 ± 0.0002 s⁻¹ and the kcat/Km (purified protein [1]; adenine 50-500 μM, 1 mM PRPP) was 12 ± 0.8 M⁻¹ s⁻¹.

B2: APRT2 (Trypanosoma brucei brucei putative adenine phosphoribosyltransferase 2, Tb927.7.1790), expressed in P. pastoris, vector not told (natural protein, UniProt Q57V31 1-230, looked up)
chain: MSQYDAILTERHPHHFTLADTHPLAKELHANIFGESDLTHANCAHVYDISSLTEKPALFRKVIEFLKCRYETMGDTGPTHIIGVESRGYIIGAPLAVALGIPFVTARVTKRFPSSFVPEGDDLKYLPMSRSIRNDSIPPRARVLIVDDFIGTGSTMLAALRLADIVAAQVVEVLTVCDVASLGGIKIIRESDDEMFKETPIFTLIHFKLSPREAEEQLEFVNSYITRSRL
notes: APRT2 of Trypanosoma brucei brucei, Tb927.7.1790, UniProt Q57V31; the ORF, codon optimised for P. pastoris, cloned into a pPICZ vector; tags were removed with TEV protease; also called TbbAPRT2; source: Pichia pastoris strain smPP, purified (Ni-NTA, TEV cleavage, second Ni-NTA)
With B2 the “stoichiometry N” value [2] was 2 and the “fold decrease in AMP formation (APRT activity) of an equimolar mixture pre-incubated 4 hours on ice (100 nM APRT1: 100 nM APRT2) against 200 nM APRT1 alone and 100 nM APRT1 alone” value [3] was 2 fold.

B3: APRT2-Ctag (Trypanosoma brucei brucei putative adenine phosphoribosyltransferase 2, Tb927.7.1790, expressed from pPICZ-Ctag) (natural protein, UniProt Q57V31 1-230, looked up)
chain: MSQYDAILTERHPHHFTLADTHPLAKELHANIFGESDLTHANCAHVYDISSLTEKPALFRKVIEFLKCRYETMGDTGPTHIIGVESRGYIIGAPLAVALGIPFVTARVTKRFPSSFVPEGDDLKYLPMSRSIRNDSIPPRARVLIVDDFIGTGSTMLAALRLADIVAAQVVEVLTVCDVASLGGIKIIRESDDEMFKETPIFTLIHFKLSPREAEEQLEFVNSYITRSRL
notes: APRT2 of Trypanosoma brucei brucei, Tb927.7.1790, UniProt Q57V31; the ORF, codon optimised for P. pastoris, cloned into pPICZ-Ctag; Tags removed with TEV protease; measured native-MS mass 26,637 Da (theoretical 26,647 Da), so residues of the TEV site are likely left at the C-terminus; also called TbbAPRT2; source: Pichia pastoris strain smPP, purified (Ni-NTA, TEV cleavage, second Ni-NTA); not …
B3 was tested, and the “stoichiometry N” value [4] was 2.

B4: APRT2-Ntag (Trypanosoma brucei brucei putative adenine phosphoribosyltransferase 2, Tb927.7.1790, expressed from pPICZ-Ntag) (natural protein, UniProt Q57V31 1-230, looked up)
chain: MSQYDAILTERHPHHFTLADTHPLAKELHANIFGESDLTHANCAHVYDISSLTEKPALFRKVIEFLKCRYETMGDTGPTHIIGVESRGYIIGAPLAVALGIPFVTARVTKRFPSSFVPEGDDLKYLPMSRSIRNDSIPPRARVLIVDDFIGTGSTMLAALRLADIVAAQVVEVLTVCDVASLGGIKIIRESDDEMFKETPIFTLIHFKLSPREAEEQLEFVNSYITRSRL
notes: APRT2 of Trypanosoma brucei brucei, Tb927.7.1790, UniProt Q57V31; the ORF, codon optimised for P. pastoris, cloned into pPICZ-Ntag; Tags removed with TEV protease; measured native-MS mass 25,860 Da (theoretical 25,853 Da); also called TbbAPRT2; source: Pichia pastoris strain smPP, purified (Ni-NTA, TEV cleavage, second Ni-NTA); not shown: His6, N-terminal, cleaved; mCherry, N-terminal, cleaved
In the case of B4, the “stoichiometry N” value [4] is reported as 2.

B5 gave a Km (purified protein [1]; [6]) of 2.2 ± 0.7 µM, a kcat (purified protein [1]; [6]) of 0.62 ± 0.02 s⁻¹ and a Km (purified protein [5]) of 68 ± 11 µM. For the same molecule, the kcat (purified protein [5]) was 0.61 ± 0.04 s⁻¹, the kcat/Km (purified protein [5]) was 9000 ± 1600 M⁻¹ s⁻¹ and the “stoichiometry N” value [4] was 2.
